Test results taken from article PMC13061415, “A structural code for assembly specificity in GID/CTLH-type E3 ligases” (eLife, 2026).
Where “and” joins values, the source holds several entries; their conditions need not be identical. Identical values can stand only once.

B1: Twa1_52 mutant (A125G, Q126R, Δ127T, L140K, E144K, L147F, F152Y, F160V), CTLH-CRA domain (domain or fragment, mouse, UniProt Q9D7M1 58-190, looked up)
chain: SVDLETLDERIKIREMILKGQIQEAIALINSLHPELLDTNRYLYFHLQQQHLIELIRQRETEAALEFGRQLAEQGEESRECKTEMKRTFALLAYDSPEESPVGDLLHMMQRQKVWSEVNQAVLDYENRESTP
notes: Twa1, mouse, CTLH-CRA domain 58-190 with eight changes; source: E. coli BL21 CodonPlus (DE3) RIL, purified (Ni-IDA, 3C cleavage, SEC); also tagless, co-expressed with muskelin or Wdr26 CTLH-CRA domain; not shown: His6, N-terminal, cleaved
B2: muskelin CTLH-CRA domain (205–735 Δ248–625) (domain or fragment, rat, UniProt Q99PV3 205-735, looked up)
chain: EHPMLTDMHDKLVLKGDFDACEELIEKAVNDGLFNQYISQQEYPSKDYLLRHCKYLIRKHRFEEKAQMDPLSALKYLQNDLYITVDHSDPEETKEFQLLASALFKSGSDFTALGFSDVDHTYAQRTQLFDTLVNFFPDSMTPPKGNLVDLITL
notes: muskelin, rat, fusion of the CTLH motif and the C-terminus (CRA^N-like): residues 205-735 with 248-625 deleted; also called muskelin wt; CTLH-Ct construct; source: E. coli BL21 CodonPlus (DE3) RIL, purified as described previously (van gen Hassend et al., 2023)

Experiments:
[1] = molecular target: B2; assay: ITC; muskelin CTLH-CRA (160 μM, syringe) titrated into RanBP10 or Twa1 CTLH-CRA variants (16 μM, cell); 25°C; 20 mM tricine pH 8.0, 500 mM NaCl, 1 mM TCEP; one-site model; conditions: both partners purified
[2] = molecular target: T1, Wdr26 CTLH-CRA domain (136-278) (mouse, UniProt Q8C6G8 136-278); assay: SEC-MALS; CTLH-CRA domain complexes co-expressed in E. coli and purified as complexes; Superdex 75 10/300 GL; 20 mM tricine pH 8.0, 500 mM NaCl, 1 mM TCEP; conditions: both partners purified
T1 construct: Wdr26, mouse, residues 136-278; Could not be purified on its own; source: E. coli BL21 CodonPlus (DE3) RIL, co-expressed with tagless Twa1_52, complex purified (Ni-IDA, 3C cleavage, SEC); not shown: His6, N-terminal, cleaved
T1 sequence (looked up): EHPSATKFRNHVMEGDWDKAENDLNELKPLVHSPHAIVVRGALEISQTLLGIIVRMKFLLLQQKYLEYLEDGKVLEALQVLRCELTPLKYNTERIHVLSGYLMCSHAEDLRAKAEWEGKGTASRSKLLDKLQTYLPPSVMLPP

[3] = molecular target: muskelin CTLH-CRA domain co-expressed with Twa1_52 (rat); assay: as above; conditions: both partners purified
Wdr26 (102–641) = molecular target: T2, Wdr26 (102–641) (mouse, UniProt Q8C6G8 102-641); assay: ITC; Twa1_52 CTLH-CRA (192 μM, syringe) titrated into muskelin (1–735) or Wdr26 (102–641) (19 μM, cell); 25°C; 20 mM tricine pH 8.0, 500 mM NaCl, 1 mM TCEP; one-site model; conditions: both partners purified
T2 construct: Wdr26, mouse, residues 102-641; also called dimeric Wdr26; (near) full-length Wdr26; source: E. coli BL21 CodonPlus (DE3) RIL, purified as described previously (van gen Hassend et al., 2023)
T2 sequence (looked up): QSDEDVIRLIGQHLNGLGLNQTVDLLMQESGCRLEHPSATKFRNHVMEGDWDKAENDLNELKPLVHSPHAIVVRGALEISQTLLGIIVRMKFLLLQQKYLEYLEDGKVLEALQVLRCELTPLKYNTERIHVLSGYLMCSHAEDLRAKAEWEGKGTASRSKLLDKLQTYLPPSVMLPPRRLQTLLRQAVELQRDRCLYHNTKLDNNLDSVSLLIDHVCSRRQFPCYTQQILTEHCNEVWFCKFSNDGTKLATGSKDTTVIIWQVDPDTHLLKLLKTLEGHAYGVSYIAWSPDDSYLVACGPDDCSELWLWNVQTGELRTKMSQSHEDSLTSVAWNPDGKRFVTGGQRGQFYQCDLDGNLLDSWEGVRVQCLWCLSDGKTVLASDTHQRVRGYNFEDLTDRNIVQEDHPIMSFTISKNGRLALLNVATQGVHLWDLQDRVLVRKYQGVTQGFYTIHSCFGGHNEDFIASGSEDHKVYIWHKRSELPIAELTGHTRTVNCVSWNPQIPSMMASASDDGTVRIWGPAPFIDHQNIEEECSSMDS

muskelin (1–735) = molecular target: T3, muskelin (1–735) (rat, UniProt Q99PV3 1-735); assay: as above; conditions: both partners purified
T3 construct: muskelin, rat, residues 1-735; also called full-length muskelin; tetrameric muskelin; source: E. coli BL21 CodonPlus (DE3) RIL, purified as described previously (van gen Hassend et al., 2023)

[4] = molecular target: B1; assay: SEC-MALS; purified CTLH-CRA domains alone or mixed (RanBP10 and Twa1 variants with Maea or muskelin), final concentration 250 μM, Superdex 75 10/300 GL; conditions: both partners purified
[5] = molecular target: the molecule itself; assay: SEC-MALS; Maea CTLH-CRA dilution series, Superdex 200 10/300 GL; molar masses of 0.3 ml peak fractions against concentration, one-site binding fit; the constant is of the step tetramer (dimer of dimers) to dimers
[6] = molecular target: T4, Twa1_10 mutant (A130Q, L147F, F152Y, F160V), CTLH-CRA domain (mouse, UniProt Q9D7M1 58-190, A130Q | L147F | F152Y | F160V); assay: native gel or EMSA; native agarose gel electrophoresis (NAGE): CTLH-CRA domains at 200 μM incubated with the partner at least 30 min at room temperature; 0.8% agarose, 25 mM Tris, 200 mM glycine, 4°C; Coomassie; conditions: both partners purified
T4 construct: Twa1, mouse, CTLH-CRA domain 58-190 with four RanBP10-like substitutions; source: E. coli BL21 CodonPlus (DE3) RIL, purified (Ni-IDA, 3C cleavage, SEC); not shown: His6, N-terminal, cleaved

[7] = molecular target: T5, Twa1_14 mutant (A125G, Q126R, ΔT127, Q128E, A130Q, M143L, E144Q, L147F, A148S, F152Y, F160V; 58–190), … (mouse, UniProt Q9D7M1 58-190, A125G | Q126R | Δ127T | Q128E | A130Q | M143L | E144Q | L147F | A148S | F152Y | …); assay: as above; conditions: both partners purified
T5 construct: Twa1, mouse, CTLH-CRA domain 58-190 with eleven RanBP10-like changes; also called Twa_14; source: E. coli BL21 CodonPlus (DE3) RIL, purified (Ni-IDA, 3C cleavage, SEC); not shown: His6, N-terminal, cleaved

Twa1 (1–228) = molecular target: T6, Twa1 (1–228) (mouse, UniProt Q9D7M1 1-228); assay: SEC-MALS; Superdex 200 10/300 GL; Twa1 (1–228) alone, co-expressed Twa1-Rmnd5a (CTLH-CRA) and Twa1-Maea (CTLH-CRA) complexes, Maea double mutant (Y272A, Y275A); conditions: both partners purified
T6 construct: Twa1, mouse, residues 1-228; A homodimer on its own (SEC-MALS); one copy pairs with RanBP10 in the heterodimer of PDB 9SOC; also called full-length dimeric Twa1; source: E. coli BL21 CodonPlus (DE3) RIL, purified as described previously (van gen Hassend et al., 2023)
T6 sequence (Q9D7M1 whole entry, the tested form may be a part): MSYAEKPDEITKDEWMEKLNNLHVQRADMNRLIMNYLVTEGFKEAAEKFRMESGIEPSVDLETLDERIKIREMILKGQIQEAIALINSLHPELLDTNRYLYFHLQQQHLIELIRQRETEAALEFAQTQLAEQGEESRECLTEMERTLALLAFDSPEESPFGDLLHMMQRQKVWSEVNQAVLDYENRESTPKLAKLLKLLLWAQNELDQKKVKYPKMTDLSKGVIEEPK

T3 sequence (Q99PV3 whole entry, the tested form may be a part): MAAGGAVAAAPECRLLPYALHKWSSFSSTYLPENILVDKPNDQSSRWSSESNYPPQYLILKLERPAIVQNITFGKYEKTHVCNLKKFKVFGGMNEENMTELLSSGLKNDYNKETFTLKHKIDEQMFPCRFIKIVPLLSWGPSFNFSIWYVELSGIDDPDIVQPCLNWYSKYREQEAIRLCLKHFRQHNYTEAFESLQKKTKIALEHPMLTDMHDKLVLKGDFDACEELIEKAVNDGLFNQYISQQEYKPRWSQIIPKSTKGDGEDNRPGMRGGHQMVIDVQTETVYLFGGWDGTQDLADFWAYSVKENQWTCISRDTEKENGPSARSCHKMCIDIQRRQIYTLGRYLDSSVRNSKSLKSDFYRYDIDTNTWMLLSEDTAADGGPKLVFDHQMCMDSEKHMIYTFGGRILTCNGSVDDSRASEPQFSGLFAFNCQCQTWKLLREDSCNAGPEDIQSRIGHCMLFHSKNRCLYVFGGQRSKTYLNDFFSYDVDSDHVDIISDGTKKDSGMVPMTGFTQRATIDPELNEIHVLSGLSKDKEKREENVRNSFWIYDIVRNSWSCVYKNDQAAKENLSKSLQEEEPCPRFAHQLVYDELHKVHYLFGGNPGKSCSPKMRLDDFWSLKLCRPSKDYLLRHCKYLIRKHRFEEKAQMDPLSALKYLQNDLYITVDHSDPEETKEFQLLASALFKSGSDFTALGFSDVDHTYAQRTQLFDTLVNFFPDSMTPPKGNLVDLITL
muskelin CTLH-CRA domain co-expressed with Twa1_52 (rat), sequence (chain, as listed by the source): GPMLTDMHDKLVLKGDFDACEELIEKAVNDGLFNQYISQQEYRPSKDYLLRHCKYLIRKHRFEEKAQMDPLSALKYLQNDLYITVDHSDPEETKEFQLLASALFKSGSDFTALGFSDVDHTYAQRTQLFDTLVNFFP

B1
Kd [1]: 146 nM | stoichiometry N [2]: 1 | stoichiometry N [3]: 1 | Kd (Wdr26 (102–641)): 15.9 nM | Kd (muskelin (1–735)): 17.9 nM

B2
stoichiometry N [4]: 1

B3: Maea CTLH-CRA domain (156-279) (domain or fragment, mouse, UniProt Q4VC33 156-279, looked up)
chain: NIEMFLTAKEVEESLERRETATCLAWCHDNKSRLRKMKSCLEFSLRIQEFIELVRQNKRLDAVRHARKHFSQAEGSQLDEVRQVMGMLAFPPDTHISPYKDLLDPARWRMLIQQFRYDNYRLHQ
notes: Maea, mouse, residues 156-279; In solution between a dimer and a tetramer (dimer of dimers), depending on concentration; source: E. coli BL21 CodonPlus (DE3) RIL, purified (Ni-IDA, 3C cleavage, SEC); also co-expressed with Twa1 (1–228); not shown: His6, N-terminal, cleaved
Kd [5]: ~5000 nM | stoichiometry N [5]: 2 and 4 | binding result [6]: binds | binding result [7]: binds | stoichiometry N (Twa1 (1–228)): 1
